Assay results published in patent publication US20110027291A1, “METHODS, SYSTEMS AND PRODUCTS FOR PREDICTING RESPONSE OF TUMOR CELLS TO A THERAPEUTIC AGENT AND TREATING A PATIENT ACCORDING TO THE PREDICTED RESPONSE” (MERRIMACK PHARMACEUTICALS, INC., priority 2008, published 2011).
Entries after “also recorded” stand apart in the source; their conditions may differ.

Legend:
[1] = system: IGROV1 xenograft tumor; experiment: Xenograft study with Ab #6 (predicted set): IGROV1; format: in vivo, mice
Experimental: (§1) In the xenograft tumor models, mice (nu/nu mice: 3-4 week old female mice, T-cell deficient; outbred; Albino background; from Charles River Labs, Wilmington, Mass.) are implanted in the right flank with […] cells/mouse (depending on cell line) in 200 μl via subcutaneous injection. Mice are monitored for initial tumor growth. Tumor cells are allowed to grow for several days until the tumor volume is approximately 200 mm^3. The tumor volume is calculated as V=(π/6 (L×W^2). The mice are treated with the Ab #6 antibody at a dosage of 600 μg/injection every 3 days (qd3). Control mice are treated with phosphate buffered saline (PBS).
(§2) To test these model predictions, three additional in vivo xenograft studies were performed. The IGROV1, OVCAR8 and SKOV3 cell lines were used in xenograft studies conducted as described in Example 1, wherein mice were treated with 600 μg of Ab #6 every 3 days or with PBS as a control. The xenograft responses, as determined by changes in tumor volume (in mm^3) over time, are summarized in the graphs of FIGS. 9A-9C. Again, the Growth Rate Reduction (GRR) value for each cell line was calculated using the following formula:
(§3) Growth Rate Reduction=1−(Ab #6 Growth Rate)/(PBS Growth Rate)

[2] = target: ErbB3 (Homo sapiens, UniProt P21860); experiment: Ab #6 rate constants measured by Kinexa (inhibitor parameter values, Table 13); format: binding
[3] = system: MALME3M xenograft tumor (melanoma cancer line); experiment: Xenograft efficacy study with Ab #6: MALME3M; format: in vivo, nu/nu mice
Source text: (§4) In this example, four xenograft tumor models were used to identify tumor cell lines that responded to treatment with the anti-ErbB3 antibody Ab #6. The four xenograft tumor models studied represent different indications: MALME3M (melanoma cancer line; ATCC No. HTB-64), ADRr (ovarian cancer cell line; NCI-60, cosmic sample ID No. 905987), ACHN (renal cancer cell line; ATCC No. CRL-1611) and DU145 (prostate cancer cell line; ATCC No. HTB-81).
as §1
(§5) Tumor volume is measured for 60-80 days.
(§6) As a measure of responsiveness of the tumor to Ab #6, the exponential growth rate is determined, which described the experimental data best. The following formula is used to describe the exponential growth. […]

[4] = system: BT474 xenograft tumor; experiment: Xenograft study with Ab #6 (MM-121): BT474; format: in vivo, mice
Source text: In this example, the data obtained for the four cell lines examined in the xenograft studies described in Example 1 (ADRr, ACHN, DU154 and MALME3M) and four cell lines including the three examined in the xenograft studies described in Example 7 (IGROV 1, OVCAR8 and SKOV3), as well as a fourth, BT474, also examined in xenograft studies as described in Example 7, were further examined to determine whether direct biomarkers for Ab #6 (MM-121) responsiveness could be identified.
Next, it was examined whether the concentration of heregulin (HRG) in combination with one receptor concentration (e.g., ErbB1, ErbB3) effectively classified the xenograft data into responders and non-responders. As illustrated in the graph of FIG. 11 (in which the log of the concentration of HRG is plotted against the log of the concentration of ErbB1), these two concentration measurements, HRG and one of the ErbB receptors, were able to accurately classify the xenograft data into responders and non-responders. More specifically, the data for four non-responders BT474, MALME3, ADRr and IGROV1, were separable from the data for four responders, OVCAR8, SKOV3, ACHN, and DU154, thereby allowing for classification of non-responders versus responders. […] For this example, EGFR is measured by FACS and HRG is measured by RT-PCR. […]

[5] = system: OVCAR8 xenograft tumor; experiment: Xenograft study with Ab #6 (predicted set): OVCAR8; format: in vivo, mice
Experimental: as §1, §2, §3

[6] = system: MDA-MB-231 xenografts; experiment: Nude mouse xenograft test of MM-121: MDA-MB-231; format: in vivo
Source text: (§7) FIG. 11 is a graph depicting the ability of an anti-ErbB3 antibody (Ab #6, MM-121) to inhibit proliferation of ACHN cells and cells of other cell lines. The center line of the three parallel diagonal lines represents the line computed to maximally separate MM-121 responders from non-responders. Predicted responder MDA-MB-231 was subsequently tested as nude mouse xenografts and was confirmed as a responder (i.e., growth of MDA-MB-231 as nude mouse xenografts was inhibited by MM-121 treatment). Other predicted responders would not grow adequately as xenografts and so could not be tested. Predicted non-responders ZR75-1 and HOP92 were subsequently tested as nude mouse xenografts and were confirmed as non-responders (i.e., growth of each as nude mouse xenografts was not inhibited by MM-121 treatment). Other predicted non-responders have not yet been tested experimentally.

[7] = system: ZR75-1 xenografts; experiment: Nude mouse xenograft test of MM-121: ZR75-1; format: in vivo
Source text: as §7

[8] = system: DU145 xenograft tumor (prostate cancer cell line); experiment: Xenograft efficacy study with Ab #6: DU145; format: in vivo, nu/nu mice
Source text: as §4, §1, §5, §6

[9] = system: ACHN xenograft tumor (renal cancer cell line); experiment: Xenograft efficacy study with Ab #6: ACHN; format: in vivo, nu/nu mice
Source text: as §4, §1, §5, §6

[10] = target: T1, ErbB3 (UniProt P21860 20-643, limits assumed); experiment: Kinexa; same on-rate as 1.43e5 M^-1s^-1, converted to model units per well
T1 construct: Elsewhere it speaks of the ectodomain of human ErbB3; also called E3; HER3

[11] = system: SKOV3 xenograft tumor; experiment: Xenograft study with Ab #6 (predicted set): SKOV3; format: in vivo, mice
Experimental: as §1, §2, §3

[12] = system: ADRr xenograft tumor (ovarian cancer cell line); experiment: Xenograft efficacy study with Ab #6: ADRr; format: in vivo, nu/nu mice
Source text: as §4, §1, §5, §6

[13] = system: HOP92 xenografts; experiment: Nude mouse xenograft test of MM-121: HOP92; format: in vivo
Source text: as §7

[14] = target: T1, ErbB3; experiment: Kinexa
[15] = 600 μg of Ab #6 every 3 days vs PBS
[16] = Ab #6 600 μg/injection every 3 days vs PBS, negative GRR set to zero
[17] = Ab #6 600 μg/injection every 3 days vs PBS

B1: anti-ErbB3 monoclonal antibody Ab #6 (antibody, V domains shown)
VH: EVQLLESGGGLVQPGGSLRLSCAASGFTFSHYVMAWVRQAPGKGLEWVSSISSSGGWTLYADSVKGRFTISRDNSKNTLYLQMNSLRAEDTAVYYCTRGLKMATIFDYWGQGTLVTVSS
VL: QSALTQPASVSGSPGQSITISCTGTSSDVGSYNVVSWYQQHPGKAPKLIIYEVSQRPSGVSNRFSGSKSGNTASLTISGLQTEDEADYYCCSYAGSSIFVIFGGGTKVTVL
notes: also called MM-121
For B1, the “experimentally observed responsiveness to Ab #6 based on GRR value” (shortened to “experimentally observed responsiveness”) [1] was “non-responder”, the “GRR (Tumor Growth Rate Reduction)” value [1, 15] was 6.3% and the “Ab #6 inhibitor binding to ErbB3 (on-rate before unit conversion)” value [2] was “calculated as 1.43e5 M^−1s^−1/(Vmedia * Av/Num_cells)”. The “kr Ab #6_1: Ab #6 inhibitor dissociation from ErbB3” value [2] was 0.00011 s⁻¹, the “kr Ab #6_2: Ab #6 inhibitor dissociation from a second ErbB3” value ([2]; 2 * krmm121_1) was 0.00022 s⁻¹ and the “kf Ab #6_1: Ab #6 inhibitor binding to ErbB3” value ([2]; unit conversion from M^−1s^−1 /(Vmedia * Av/Num_cells), Num_cells = 30,000 per well) was 7.15E−11 molecules^−1 sec^−1. For the same molecule, the “GRR (Tumor Growth Rate Reduction)” value [3, 16] was 0%, the “effect of antibody treatment on tumor growth (in words)” value (“effect of antibody treatment” below) ([3]; vs PBS control) was “did not inhibit tumor growth; also recorded: no response” and the “xenograft responsiveness (responder / non-responder)” value [4] was “non-responders”. For the same molecule, the “experimentally observed responsiveness” value [5] was “responders”, the “GRR (Tumor Growth Rate Reduction)” value [5, 15] was 91.4% and the “growth as nude mouse xenografts under MM-121 treatment” value (from here on “growth as nude mouse xenografts”) [6] was “inhibited”. For the same molecule, the “growth as nude mouse xenografts” value [7] was “not inhibited”, the “GRR (Tumor Growth Rate Reduction)” value [8, 17] was 72.6% and the “effect of antibody treatment” value ([8]; vs PBS control) was “inhibited tumor growth; also recorded: highest responsiveness”. The “GRR (Tumor Growth Rate Reduction)” value [9, 17] was 28.0%, the “effect of antibody treatment” value ([9]; vs PBS control) was “inhibited tumor growth; also recorded: mid-range responsiveness” and the kon [10] was 143000 M⁻¹ s⁻¹. For the same molecule, the “experimentally observed responsiveness” value [11] was “responders”, the “GRR (Tumor Growth Rate Reduction)” value [11, 15] was 19.6% and the “GRR (Tumor Growth Rate Reduction)” value [12, 16] was 0%. The “effect of antibody treatment” value ([12]; vs PBS control) was “did not inhibit tumor growth; also recorded: no response”, the “growth as nude mouse xenografts” value [13] was “not inhibited” and the koff [14] was 0.00011 s⁻¹. For the same molecule, the kon [14] was 143000 M⁻¹ s⁻¹.
